# Molecular target: SUN2 (human (endogenous in HUVECs)) (UniProt Q9UH99)
# Assay: proximity ligation; Duolink in situ PLA on fixed, saponin-permeabilised HUVECs with primary antibodies against SUN2 and Nesprin1; cells exposed to PS (12 ± 4 dynes/cm^2) or OS (0.5 ± 4 dynes/cm^2) for 6 h
# Sequence of UniProt Q9UH99 (Q9UH99 whole entry): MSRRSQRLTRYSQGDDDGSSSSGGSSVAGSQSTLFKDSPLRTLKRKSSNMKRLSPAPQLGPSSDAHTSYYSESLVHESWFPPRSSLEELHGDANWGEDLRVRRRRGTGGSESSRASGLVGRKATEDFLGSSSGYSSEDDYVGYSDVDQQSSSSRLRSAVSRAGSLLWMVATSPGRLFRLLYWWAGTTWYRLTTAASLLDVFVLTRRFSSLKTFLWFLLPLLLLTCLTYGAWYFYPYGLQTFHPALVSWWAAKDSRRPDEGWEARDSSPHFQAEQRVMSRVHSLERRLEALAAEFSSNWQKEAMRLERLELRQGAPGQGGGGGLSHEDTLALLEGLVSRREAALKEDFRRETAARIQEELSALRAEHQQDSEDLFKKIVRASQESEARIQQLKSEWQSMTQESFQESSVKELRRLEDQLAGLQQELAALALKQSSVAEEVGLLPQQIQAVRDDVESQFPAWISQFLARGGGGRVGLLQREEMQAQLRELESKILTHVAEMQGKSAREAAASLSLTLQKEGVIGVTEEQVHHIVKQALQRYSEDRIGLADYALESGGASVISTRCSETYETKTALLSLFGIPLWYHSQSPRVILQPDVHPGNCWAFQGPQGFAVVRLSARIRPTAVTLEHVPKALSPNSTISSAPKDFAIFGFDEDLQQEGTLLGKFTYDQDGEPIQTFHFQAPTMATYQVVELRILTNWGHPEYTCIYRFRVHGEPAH
substance,measurement,value
"Nesprin1, Q8NF91 1-8797",PLA punctuated signals per cell (cells exposed to OS),2 per cell
same,PLA punctuated signals per cell (cells exposed to PS),7 per cell

# From publication PMC7330101
